According to patent publication US20230000998A1 (OSSIANIX, published 2023):
Blank lines part the entries; values can stand above or below the binder they belong to.

Assays:
[1] = molecular target: human TrkB receptor (overexpressed on TrkB-NFAT-bla CHO-K1 reporter cells) (human, UniProt Q16620 32-822); experiment: cell-based or functional assay
[2] = molecular target: T1, mouse TfR-1 (transferrin receptor 1), purified recombinant (mouse, UniProt Q62351 89-763, limits assumed); experiment: kinetic ELISA on coated recombinant TfR-1, anti-human Fc-HRP detection, Vmax at 370 nm
T1 construct: also called mTfR1
Procedure: (§1) The TrkB fusion constructs were assessed for binding to recombinant human, mouse, rat and cynomolgus TfR1. […] When these conjugates were compared to a control VNAR-Fc (open circles), no loss of affinity for TrkB(HC2N) (squares) was observed and only minimal loss for TrkB(HV2N) (triangles).
(§2) TfR-1-binding ELISA. Nunc MaxiSorp plates (Thermo Fisher) were coated with 100 μl of 1 μg/ml of purified, recombinant mouse, human, rat or cynomolgus TfR-1, or with human serum albumin (HAS; Sigma) and incubated at 4° C. overnight. Plates were incubated with blocking buffer (2.5% non-fat dry milk in PBS with 0.1% Tween20; “PBST”) for 1 hat room temperature. Antibody or conjugate solutions were incubated in PBST for 30 min. The blocked solutions (100 μl) were transferred to the blocked plates and incubated for 1 h before washing with PBST. After washing, the plates were incubated for 30 min with a goat anti-human Fc-peroxidase antibody diluted 1:5000 (Sigma) in PBST. The plates were washed and developed with SureBlue™ TMB substrate (VWR). The development of the reaction was measured at 370 nm in real time providing data for Vmax analysis. EC50 values were calculated using 4-parametric non-linear regression (Prism).

[3] = molecular target: T2, cynomolgus TfR-1 (transferrin receptor 1), purified recombinant (cynomolgus, UniProt H9EXL1 89-760 (rhesus entry)); experiment: as above
T2 construct: also called cTfR1
Procedure: as §1, §2

[4] = molecular target: T3, human TfR-1 (transferrin receptor 1), purified recombinant (human, UniProt P02786 89-760, limits assumed); experiment: as above
T3 construct: Coated on ELISA plates at 1 ug/ml; also called hTfR1
Procedure: as §1, §2

[5] = molecular target: T4, rat TfR-1 (transferrin receptor 1), purified recombinant (rat, UniProt Q99376 89-761, limits assumed); experiment: as above
T4 construct: also called rTfR1
Procedure: as §1, §2

human serum albumin = molecular target: T5, human serum albumin (human, UniProt P02768 25-609); experiment: kinetic ELISA on coated HSA (negative control); ND: not detected
T5 construct: also called HSA; HAS
Procedure: as §1, §2

[6] = molecular target: T1, mouse TfR-1 (transferrin receptor 1), …; experiment: kinetic ELISA on coated recombinant TfR-1 (Vmax at 370 nm); ND: not detected
Procedure: as §1, §2

[7] = molecular target: T2, cynomolgus TfR-1 (transferrin receptor …); experiment: as above
Procedure: as §1, §2

[8] = molecular target: T3, human TfR-1 (transferrin receptor 1), …; experiment: as above
Procedure: as §1, §2

[9] = molecular target: T4, rat TfR-1 (transferrin receptor 1), …; experiment: as above
Procedure: as §1, §2

T4 sequence (Q99376 89-761 limits assumed): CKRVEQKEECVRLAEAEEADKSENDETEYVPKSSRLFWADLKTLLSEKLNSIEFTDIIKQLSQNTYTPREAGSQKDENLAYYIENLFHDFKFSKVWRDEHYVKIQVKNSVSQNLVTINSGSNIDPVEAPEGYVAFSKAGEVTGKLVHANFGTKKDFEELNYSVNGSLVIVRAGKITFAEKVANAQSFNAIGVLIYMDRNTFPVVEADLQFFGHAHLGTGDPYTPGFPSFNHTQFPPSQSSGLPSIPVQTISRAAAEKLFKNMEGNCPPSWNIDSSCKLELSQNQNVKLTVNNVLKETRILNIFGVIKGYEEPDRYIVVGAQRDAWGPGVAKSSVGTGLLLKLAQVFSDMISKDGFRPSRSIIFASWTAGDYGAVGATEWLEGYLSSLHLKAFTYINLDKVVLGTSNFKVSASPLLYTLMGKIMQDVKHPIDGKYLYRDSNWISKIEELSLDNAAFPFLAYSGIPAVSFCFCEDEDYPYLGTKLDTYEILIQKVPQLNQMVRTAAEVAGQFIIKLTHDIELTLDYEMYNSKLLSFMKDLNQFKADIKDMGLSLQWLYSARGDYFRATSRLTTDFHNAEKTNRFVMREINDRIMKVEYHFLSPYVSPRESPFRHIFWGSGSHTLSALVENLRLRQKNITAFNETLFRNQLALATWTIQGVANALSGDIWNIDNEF
T5 sequence (P02768 25-609 limits assumed): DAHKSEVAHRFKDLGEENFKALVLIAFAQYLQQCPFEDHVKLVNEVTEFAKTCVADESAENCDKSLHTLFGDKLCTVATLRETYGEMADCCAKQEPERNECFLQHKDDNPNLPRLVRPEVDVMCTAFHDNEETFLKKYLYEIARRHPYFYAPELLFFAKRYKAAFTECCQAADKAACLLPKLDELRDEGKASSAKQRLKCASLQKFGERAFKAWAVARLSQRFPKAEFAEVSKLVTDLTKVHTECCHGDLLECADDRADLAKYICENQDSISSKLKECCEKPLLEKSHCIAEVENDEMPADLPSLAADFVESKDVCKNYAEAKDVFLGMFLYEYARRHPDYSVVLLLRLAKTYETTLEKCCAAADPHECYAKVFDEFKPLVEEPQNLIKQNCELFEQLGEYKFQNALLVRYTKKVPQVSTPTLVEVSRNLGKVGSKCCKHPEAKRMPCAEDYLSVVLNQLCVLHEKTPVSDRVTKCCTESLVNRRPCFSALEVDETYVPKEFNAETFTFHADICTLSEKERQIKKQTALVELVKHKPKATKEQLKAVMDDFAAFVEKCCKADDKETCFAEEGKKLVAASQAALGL
T3 sequence (P02786 89-760 limits assumed): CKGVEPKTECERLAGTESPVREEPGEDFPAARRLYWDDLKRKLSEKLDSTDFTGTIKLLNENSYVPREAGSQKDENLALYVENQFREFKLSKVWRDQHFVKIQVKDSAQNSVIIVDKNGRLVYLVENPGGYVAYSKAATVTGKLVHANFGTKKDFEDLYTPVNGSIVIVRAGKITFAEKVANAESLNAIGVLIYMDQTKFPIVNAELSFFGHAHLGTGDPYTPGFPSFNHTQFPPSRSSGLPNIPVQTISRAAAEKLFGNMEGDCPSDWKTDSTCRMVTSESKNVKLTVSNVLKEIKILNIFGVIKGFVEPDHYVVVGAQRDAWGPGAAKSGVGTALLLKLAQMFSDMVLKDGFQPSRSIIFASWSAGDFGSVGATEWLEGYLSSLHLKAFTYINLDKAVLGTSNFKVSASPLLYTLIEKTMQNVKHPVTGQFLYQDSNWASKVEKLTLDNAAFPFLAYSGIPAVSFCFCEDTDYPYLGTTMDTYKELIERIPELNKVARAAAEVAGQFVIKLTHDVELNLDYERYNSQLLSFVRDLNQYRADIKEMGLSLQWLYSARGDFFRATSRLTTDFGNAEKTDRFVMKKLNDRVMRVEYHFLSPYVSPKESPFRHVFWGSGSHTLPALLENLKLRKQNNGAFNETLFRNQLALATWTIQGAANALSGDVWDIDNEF
T2 sequence (chain, as listed by the source): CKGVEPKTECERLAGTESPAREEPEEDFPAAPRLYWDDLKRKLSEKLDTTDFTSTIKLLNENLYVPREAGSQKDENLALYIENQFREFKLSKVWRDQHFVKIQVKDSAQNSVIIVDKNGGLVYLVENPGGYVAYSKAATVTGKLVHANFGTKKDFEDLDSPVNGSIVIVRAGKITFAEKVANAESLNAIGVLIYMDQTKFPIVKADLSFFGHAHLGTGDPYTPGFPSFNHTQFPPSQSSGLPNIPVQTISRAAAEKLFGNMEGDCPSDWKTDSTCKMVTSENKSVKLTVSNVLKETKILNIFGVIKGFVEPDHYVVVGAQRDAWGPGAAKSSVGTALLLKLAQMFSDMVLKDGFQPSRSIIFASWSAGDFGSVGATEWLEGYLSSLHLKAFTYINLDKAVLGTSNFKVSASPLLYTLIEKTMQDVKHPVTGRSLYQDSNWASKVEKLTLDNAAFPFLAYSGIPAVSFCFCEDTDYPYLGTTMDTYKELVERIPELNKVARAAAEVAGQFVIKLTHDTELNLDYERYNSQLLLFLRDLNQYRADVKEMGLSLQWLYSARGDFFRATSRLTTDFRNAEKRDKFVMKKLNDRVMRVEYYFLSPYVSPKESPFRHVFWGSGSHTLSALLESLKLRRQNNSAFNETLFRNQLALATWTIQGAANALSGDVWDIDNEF
Sequence of human TrkB receptor (overexpressed on TrkB-NFAT-bla CHO-K1 reporter cells) (Q16620 32-822): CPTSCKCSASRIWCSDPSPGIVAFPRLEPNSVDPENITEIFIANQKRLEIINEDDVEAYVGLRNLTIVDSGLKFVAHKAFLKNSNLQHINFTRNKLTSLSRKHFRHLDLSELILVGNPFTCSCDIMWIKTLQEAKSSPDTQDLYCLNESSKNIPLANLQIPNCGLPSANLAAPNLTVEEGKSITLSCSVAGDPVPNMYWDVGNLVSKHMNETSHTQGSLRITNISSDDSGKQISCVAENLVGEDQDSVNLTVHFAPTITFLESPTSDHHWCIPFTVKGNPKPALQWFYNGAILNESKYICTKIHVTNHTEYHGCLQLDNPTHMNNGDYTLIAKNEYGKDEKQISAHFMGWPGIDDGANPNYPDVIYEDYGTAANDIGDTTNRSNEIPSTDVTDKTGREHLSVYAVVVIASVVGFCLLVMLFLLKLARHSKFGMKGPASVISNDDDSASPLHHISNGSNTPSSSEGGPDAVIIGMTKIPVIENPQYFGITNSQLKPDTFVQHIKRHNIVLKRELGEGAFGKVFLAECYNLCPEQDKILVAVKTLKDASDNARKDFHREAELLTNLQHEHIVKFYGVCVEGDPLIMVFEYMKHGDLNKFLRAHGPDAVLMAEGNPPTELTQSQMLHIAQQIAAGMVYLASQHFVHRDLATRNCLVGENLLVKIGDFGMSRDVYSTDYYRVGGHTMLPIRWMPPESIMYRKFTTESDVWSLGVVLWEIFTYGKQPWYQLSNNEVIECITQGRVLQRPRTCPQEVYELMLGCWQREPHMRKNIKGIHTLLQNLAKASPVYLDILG
T1 sequence (Q62351 89-763 limits assumed): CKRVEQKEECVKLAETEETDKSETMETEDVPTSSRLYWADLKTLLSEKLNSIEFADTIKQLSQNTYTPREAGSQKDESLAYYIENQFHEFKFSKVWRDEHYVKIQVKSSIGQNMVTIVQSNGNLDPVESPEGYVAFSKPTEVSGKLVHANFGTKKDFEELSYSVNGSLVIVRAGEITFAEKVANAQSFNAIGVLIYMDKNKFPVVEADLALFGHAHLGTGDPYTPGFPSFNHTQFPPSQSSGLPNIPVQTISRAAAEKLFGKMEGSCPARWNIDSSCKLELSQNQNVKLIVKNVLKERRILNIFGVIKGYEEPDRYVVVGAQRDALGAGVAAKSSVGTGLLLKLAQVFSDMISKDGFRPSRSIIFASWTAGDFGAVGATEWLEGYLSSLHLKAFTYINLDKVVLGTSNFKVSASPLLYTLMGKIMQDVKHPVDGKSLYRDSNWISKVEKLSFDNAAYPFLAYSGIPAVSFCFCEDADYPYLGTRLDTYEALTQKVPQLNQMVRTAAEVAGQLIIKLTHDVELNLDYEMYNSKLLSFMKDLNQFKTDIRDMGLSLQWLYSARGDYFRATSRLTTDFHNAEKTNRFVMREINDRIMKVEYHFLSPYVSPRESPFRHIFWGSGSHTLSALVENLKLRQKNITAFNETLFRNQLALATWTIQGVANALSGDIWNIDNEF

B1: TrkB(HC2N) conjugate (TXB4 VNAR fused to the N-terminus of the TrkB antibody heavy chain via a 3xG4S linker) (bispecific antibody, human IgG1, kappa, L234A L235A)
light: AIVLIQSPATLSVTPGDSVSLSCRASQTISNNLHWYQQKSHESPRLLIKSASLAISGIPSRFSGSGSGTDFTLSISSVETEDFGMYFCQQSNSWPNTFGGGTKLEIKRTVAAPSVFIFPPSDEQLKSGTASVVCLLNNFYPREAKVQWKVDNALQSGNSQESVTEQDSKDSTYSLSSTLTLSKADYEKHKVYACEVTHQGLSSPVTKSFNRGEC
heavy: not shown
notes: Copies of 2 are inferred from the IgG1 format; also called TXB4-TrkB-AAb conjugate
agonist activity relative to TrkB(HV2N) (TrkB-NFAT-bla CHO-K1 cells) [1]: ~7 fold less than TrkB(HV2N)
maximal reporter response as percentage of the BDNF response (TrkB-NFAT-bla CHO-K1 cells) [1]: ~50%
EC50 [2]: 0.63 nM
EC50 [3]: 0.79 nM
EC50 [4]: 0.74 nM
EC50 [5]: 4.03 nM
binding result (human serum albumin): no binding

B4: VNAR-Fc control conjugate (TXB4 fused to the N-terminal end of the Fc domain) (Fc fusion)
chain: ARVDQTPQTITKETGESLTINCVLRDSNCALSSTYWYRKKSGSTNEENISKGGRYVETVNSGSKSFSLRINDLTVEDSGTYRCNVVQYPQYPNYFWCDVYGDGTAVTVNA
notes: also called control VNAR-Fc fusion; not shown: Fc domain
EC50 [2]: 0.54 nM
EC50 [3]: 1 nM
EC50 [4]: 0.78 nM
EC50 [5]: 1.37 nM
binding result (human serum albumin): no binding

Continued, values first:

maximal reporter response as percentage of the BDNF response (TrkB-NFAT-bla CHO-K1 cells) [1]: ~50%
EC50 [2]: 5.07 nM
EC50 [3]: 2.04 nM
EC50 [4]: 5.3 nM
EC50 [5]: 61 nM
binding result (human serum albumin): no binding
B2: TrkB(HV2N) conjugate (TXB4 VNAR inserted between the CH1 and Fc domains of the TrkB antibody heavy chain) (bispecific antibody, IgG1)
light: B1 light
heavy: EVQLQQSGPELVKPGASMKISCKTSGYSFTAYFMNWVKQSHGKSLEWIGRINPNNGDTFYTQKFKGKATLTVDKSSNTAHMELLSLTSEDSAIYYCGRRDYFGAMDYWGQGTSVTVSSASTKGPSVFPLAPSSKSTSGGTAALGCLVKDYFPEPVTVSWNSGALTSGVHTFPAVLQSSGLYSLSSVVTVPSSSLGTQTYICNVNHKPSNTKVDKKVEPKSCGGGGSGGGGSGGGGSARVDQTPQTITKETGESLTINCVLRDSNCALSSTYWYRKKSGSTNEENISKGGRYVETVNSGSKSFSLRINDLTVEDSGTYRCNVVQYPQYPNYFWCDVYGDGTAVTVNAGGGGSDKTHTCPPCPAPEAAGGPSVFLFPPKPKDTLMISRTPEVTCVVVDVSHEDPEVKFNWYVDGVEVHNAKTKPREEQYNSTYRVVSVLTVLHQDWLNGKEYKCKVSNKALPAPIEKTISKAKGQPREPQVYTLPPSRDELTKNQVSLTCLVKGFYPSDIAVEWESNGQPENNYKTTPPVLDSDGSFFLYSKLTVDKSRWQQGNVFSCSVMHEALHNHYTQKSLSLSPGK
notes: Copies of 2 are inferred from the IgG1 format; also called TrkB1-TXB4; TXB4-TrkB-AAb conjugate

maximal reporter response as percentage of the BDNF response (TrkB-NFAT-bla CHO-K1 cells) [1]: ~50%
binding result [6]: no binding
binding result [7]: no binding
binding result [8]: no binding
binding result [9]: no binding
binding result (human serum albumin): no binding
B3: unconjugated TrkB-AAb (mouse-human chimeric 29D7 TrkB agonist antibody, human IgG1 LALA / human kappa) (antibody, V domains shown)
VH: EVQLQQSGPELVKPGASMKISCKTSGYSFTAYFMNWVKQSHGKSLEWIGRINPNNGDTFYTQKFKGKATLTVDKSSNTAHMELLSLTSEDSAIYYCGRRDYFGAMDYWGQGTSVTVSS
VL: AIVLIQSPATLSVTPGDSVSLSCRASQTISNNLHWYQQKSHESPRLLIKSASLAISGIPSRFSGSGSGTDFTLSISSVETEDFGMYFCQQSNSWPNTFGGGTKLEIKR
notes: VH and VL of mouse 29D7 fused to human IgG1 and human kappa constant regions; Copies of 2 are inferred from the IgG1 format; also called unconjugated TrkB antibody; TrkB 29D7
